The record followed here is the supplement of paper PMC10567573.

± gives the standard deviation.

The nature of this data set: protein stability index of a GFP-peptide fusion (GPS, HEK-293T) (PSI 1-6); higher = more stable.
The mark [1] stands for this setting: treatment: DMSO, c terminus: a fixed tail appended.
Where [2] appears, read: treatment: MLN4924 1 uM, 8 h, c terminus: a fixed tail appended.
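Also: 24-mer peptide tiles fused after GFP, lentivirally expressed, FACS-sorted into six equal bins by GFP/DsRed ratio, decoded by Illumina sequencing, PSI is the read-weighted mean bin number.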

For the sequence LLTNNSGTPKDHDSPENGADSFES [ETS2], the protein stability index runs as follows: under setting [1], 5.2 ± 0.26; under setting [2], 5.22 ± 0.12.

Take LLVQFVCQEYLARNARIVHLVEET [CPXM2]: the protein stability index by setting is: under setting [1], 3.82 ± 0.26; under setting [2], 2.63 ± 0.95.

Sequence LMTSKPAEVVKILQTMLRQSAFLH [INTS4] showed a protein stability index under setting [1] of 2.78 ± 0.41 and a protein stability index under setting [2] of 2.43 ± 0.29.

Turning to LNEDPLKWWSDRLALFPLLPKVLQ [ZBED1], the protein stability index amounted to 2.2 ± 0.25 under setting [1] and 2.16 ± 0.1 under setting [2].

Turning to LNKELNENQLVRKQDVLGPSTTPP [SASS6], the protein stability index worked out at 5 ± 0.2 under setting [1] and 5.1 ± 0.071 under setting [2].

In the case of LNQVADLLEQSLEEFAQAESKDQG [ALDH8A1], the protein stability index amounted to 5.18 ± 0.14 under setting [1] and 5.21 ± 0.53 under setting [2].

As for LNRSESDIRYLLGYVSQQGGQRST [FEM1B], the protein stability index is, setting by setting: under setting [1], 3.73 ± 0.19; under setting [2], 3.59 ± 0.33.

For LNYLVDPVTICCGHSFCRPCLCLS [TRIM43], the protein stability index is, setting by setting: under setting [1], 2.26 ± 0.34; under setting [2], 2.42 ± 0.23.

Take LPAEARERSRGRSISRGRHARTHP [MATN2]: the protein stability index runs as follows: under setting [1], 5.05 ± 0.5; under setting [2], 5.17 ± 0.23.

On to LPDGCQPLQLLREMRQALQALLKE [CBY2], for which the protein stability index reads like this: under setting [1], 2.45 ± 0.35; under setting [2], 2.51 ± 0.33.

LPGRKLVSSAVSPSIIPQEDPSQQ [INTS4] showed a protein stability index under setting [1] of 5.12 ± 0.12 and a protein stability index under setting [2] of 5.02 ± 0.32.

Regarding LPGWEDIESKIPLNMEEPPVEEPE [SLC19A2], the protein stability index under setting [1] was 5.51 ± 0.32 and the protein stability index under setting [2] stood at 5.24 ± 0.23.

For LPTDGSTGVELAPRSAEPGYLVTK [PCDHGA10], the protein stability index came out at 4.52 ± 0.17 under setting [1] and 4.66 ± 0.15 under setting [2].

Consider LPVSSPEPPPALPPAADAPVTQIG [TRIM55], for which the protein stability index runs as follows: under setting [1], 5.23 ± 0.13; under setting [2], 5.33 ± 0.12.

On to LPYLEHVGHNHTYNMAPSALDSAD [NFE2L1], for which the protein stability index worked out at 4.42 ± 0.15 under setting [1] and 4.44 ± 0.11 under setting [2].

With LQFLYTGQLDEKEKDLVGLAQIAE [RHOBTB1], the protein stability index reads like this: under setting [1], 2.38 ± 0.29; under setting [2], 2.83 ± 0.25.

Regarding LQLAIPRENAQISLDGDVTFFGAL [TNFSF13B], the protein stability index under setting [1] worked out at 2.1 ± 0.32 and the protein stability index under setting [2] turned out to be 2.17 ± 0.36.

Take LQNEVRQLTEKLARVNENLARKIA [SSNA1]: the protein stability index by setting is: under setting [1], 2.27 ± 0.29; under setting [2], 2.2 ± 0.29.

In turn, LQRVPSYDSFDSEDYPAALPNHKP [ETS1] returned a protein stability index under setting [1] of 4.45 ± 0.18 and a protein stability index under setting [2] of 4.53 ± 0.17.

LQSCGDLHTFTPAGRPRAERRPRR [FAM189A2] came in with a protein stability index under setting [1] of 4.95 ± 0.27 and a protein stability index under setting [2] of 5.07 ± 0.23.

Regarding LRDIRAQYESIAAKNLQEAEEWYK [PRPH], the protein stability index was found to be 4.24 ± 0.24 under setting [1] and 4.33 ± 0.41 under setting [2].

Consider LREAEIARIRDEEAQRASFLQNAV [LRRC45], for which the protein stability index came to 4.37 ± 0.18 under setting [1] and 4.43 ± 0.27 under setting [2].

Turning to LREERKKAKKNKDKYVGVSSDSVG [CLINT1], the protein stability index under setting [1] amounted to 4.95 ± 0.17 and the protein stability index under setting [2] came to 5.09 ± 0.15.

LRKYSFDGLDLDWEYPGSQGSPAV [CHIT1] gave a protein stability index under setting [1] of 2.32 ± 0.23 and a protein stability index under setting [2] of 2.61 ± 0.38.

Take LRRQKSLRLEWETQQELRKIREKE [IQUB]: the protein stability index amounted to 3.94 ± 0.28 under setting [1] and 4.02 ± 0.091 under setting [2].

Regarding LRRVLDELTLSKTDLEMQIESLNE [KRT13], the protein stability index is 3.12 ± 0.098 under setting [1] and 2.98 ± 0.068 under setting [2].

As for LRRWLRANLAASGGYAIAVVLLQG [TSPAN10], the protein stability index reads like this: under setting [1], 2.43 ± 0.68; under setting [2], 2.35 ± 0.075.

Take LRVEFAAENYLSGGGPGDGGGADT [FBXO33]: the protein stability index under setting [1] turned out to be 4.16 ± 0.18 and the protein stability index under setting [2] was determined as 4.13 ± 0.26.

For the sequence LRVSPDGTAFCSGSWDHTLRVWA [GNB5], the protein stability index is 2.95 ± 0.33 (treatment: DMSO, c terminus: native) and 2.77 ± 0.77 (treatment: MLN4924 1 uM, 8 h, c terminus: native).

For LRYVNSTRAPQRAHEVLQELRDIS [FBXO28], the protein stability index reads like this: under setting [1], 3.09 ± 0.21; under setting [2], 3.35 ± 0.28.

The sequence LSHSPQEDWVLLGMANGQQWLQST [TLE6] came in with a protein stability index under setting [1] of 2.57 ± 0.3 and a protein stability index under setting [2] of 2.52 ± 0.26.

In the case of LSLASLLVYVAAFSIGLGPMPWLV [SLC2A12], the protein stability index by setting is: under setting [1], 2.93 ± 0.37; under setting [2], 2.79 ± 0.68.

For LSLIGVRVDVDTYLTSQLPPLREI [NFE2L1], the protein stability index under setting [1] is 3.12 ± 1.1 and the protein stability index under setting [2] is 2.57 ± 0.58.

LSQAPAEGPDLVPAALGSLTTAQI [HES6]: the protein stability index by setting is: under setting [1], 4.35 ± 0.32; under setting [2], 4.36 ± 0.61.

With LSSSEGLEPGSADPLANGCQGVSE [PSD2], the protein stability index was 5.39 ± 0.24 under setting [1] and 5.49 ± 0.12 under setting [2].

Regarding LSTFSVPYFLFQHWATGYSKSSHP [SOAT1], the protein stability index under setting [1] came out at 2.11 ± 0.4 and the protein stability index under setting [2] is 2.56 ± 0.79.

For LTQRQVNITVQKKVSQWWERLTKQ [HACD3], the protein stability index reads like this: under setting [1], 2.55 ± 0.33; under setting [2], 2.81 ± 0.24.

LTRPVPAGADLPPPKIRLKPHRLG [PWWP2B]: the protein stability index runs as follows: under setting [1], 3.91 ± 0.29; under setting [2], 3.73 ± 0.21.

As to LTYGEVRNSKASAYCLDQGAEDGD [GALNT9], the protein stability index was 5.37 ± 0.29 under setting [1] and 5.3 ± 0.29 under setting [2].

As for LTYINEDRISTTFRLTTLLMSGCS [PLK2], the protein stability index is, setting by setting: under setting [1], 2.74 ± 0.63; under setting [2], 2.56 ± 0.45.

Take LVARFLEQSSCTMTPDIHELVENI [FAM189A2]: the protein stability index by setting is: under setting [1], 2.54 ± 0.55; under setting [2], 2.37 ± 0.4.

LVEAGAHTDMTNKQNKTPLDKSTT [FEM1B]: the protein stability index reads like this: under setting [1], 5.34 ± 0.29; under setting [2], 5.27 ± 0.21.

LVLLRQMLLELTRRGQEPLSALLQ [BCL2L13] displayed a protein stability index under setting [1] of 2.37 ± 0.22 and a protein stability index under setting [2] of 2.62 ± 0.48.

For the sequence LVVQIDNAKLAADDFRTKYQTEQS [KRT33B], the protein stability index under setting [1] was 3.18 ± 0.19 and the protein stability index under setting [2] stood at 3.36 ± 0.16.

Sequence LYPSLNVTSFDSVVPEKLDDLVPK [ALG2] registered a protein stability index under setting [1] of 4.32 ± 0.14 and a protein stability index under setting [2] of 4.42 ± 0.11.

For LYVVGGQSNYDTKGKTAVDTVFRF [KLHL13], the protein stability index was 2.5 ± 0.2 under setting [1] and 1.98 ± 0.31 under setting [2].

As for MAAADAEAVPARGEPQQDCCVKTE [EHMT1], the protein stability index was determined as 5.63 ± 0.21 under setting [1] and 5.53 ± 0.11 under setting [2].

Consider MAEQSDEAVKYYTLEEIQKHNHSK [CYB5A], for which the protein stability index came to 5.31 ± 0.24 under setting [1] and 5.28 ± 0.19 under setting [2].

In turn, MATFPCQLCGKTFLTLEKFTIHNY [PLAGL1] showed a protein stability index under setting [1] of 2.47 ± 0.23 and a protein stability index under setting [2] of 2.4 ± 0.28.

Regarding MDLMVEVSPRRIFANGHTYHINSI [PPP2R2C], the protein stability index runs as follows: under setting [1], 2.91 ± 0.41; under setting [2], 2.8 ± 0.6.

For the sequence MDLRTAVYNAARDGKLQLLQKLLS [FEM1A], the protein stability index by setting is: under setting [1], 2.21 ± 0.26; under setting [2], 2.28 ± 0.24.

For MDMDQDSEEEKELYLNLALHLASD [PDS5B], the protein stability index is 3.82 ± 0.23 under setting [1] and 4.04 ± 0.081 under setting [2].
